For one substance, Km, kcat and kcat/Km results are on record in paper PMC4888466.

Holding throughout (assay): purified protein
Common to all, as to type: biochemical, Caenorhabditis elegans

The test system of series [1] is Nc1nc2c(ncn2[C@@H]2O[C@H](COP(=O)(O)OP(=O)(O)OP(=O)(O)O)[C@@H](O)[C@H]2O)c(=O)[nH]1. As to conditions: 1 mM Man-1-P, 5 mM MgCl2, pH 7.5, 25°C.
For series [2], the system named is O=P(O)(O)O[C@H]1O[C@H](CO)[C@@H](O)[C@H](O)[C@H]1O. The following applies: 1 mM GTP, 5 mM MgCl2, pH 7.5, 25°C.
The test system of series [3] is O=P(O)(O)O[C@H]1O[C@H](CO)[C@@H](O)[C@H](O)[C@@H]1O. The following applies: 1 mM GTP, 5 mM MgCl2, pH 7.5, 25°C.

In general, Km refers to the substrate concentration at which the rate is half of its maximum. In general, kcat refers to the number of substrate molecules converted per active site and unit of time at saturation. As a reminder, the kcat/Km is the turnover number divided by the Michaelis constant.

For GMP-1 (Caenorhabditis elegans), in series [1], the Km stood at 16.04 ± 1.68 µM, the catalytic constant (kcat) was determined as 29.1 ± 0.58 s⁻¹ and the specificity constant (kcat/Km) was determined as 1.81e+06 ± 190000 M⁻¹ s⁻¹. Besides, in series [2], the Michaelis-Menten constant (Km) came to 508.90 ± 118.40 µM, the kcat is 33.1 ± 2.9 s⁻¹ and the specificity constant (kcat/Km) was 65000 ± 16000 M⁻¹ s⁻¹. For the same substance, in series [3], the Km turned out to be 18.49 ± 2.14 µM, the kcat is 30.3 ± 0.69 s⁻¹ and the kcat/Km came out at 1.64e+06 ± 190000 M⁻¹ s⁻¹.
